Paper PMC10397247

Experiments:
Test in all cases: two-hybrid library CCNG1;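 also: natural log of median RNA to DNA barcode read ratio; higher means stronger binding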
4H331-bH = target: T1, 4H331-bH
T1 chain: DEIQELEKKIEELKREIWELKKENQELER

4H687-bH = target: T2, 4H687-bH
T2 chain: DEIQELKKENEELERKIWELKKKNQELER

4H454-bH = target: T3, 4H454-bH
T3 chain: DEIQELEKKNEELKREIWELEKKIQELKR

4H72-bH = target: T4, 4H72-bH
T4 chain: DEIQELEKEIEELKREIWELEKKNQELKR

4H918-bH = target: T5, 4H918-bH
T5 chain: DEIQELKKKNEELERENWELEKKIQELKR

4H3782-bH = target: T6, 4H3782-bH
T6 chain: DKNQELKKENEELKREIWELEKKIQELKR

4H908-bH = target: T7, 4H908-bH
T7 chain: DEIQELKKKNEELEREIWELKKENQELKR

4H717-bH = target: T8, 4H717-bH
T8 chain: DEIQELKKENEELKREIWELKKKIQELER

4H953-bH = target: T9, 4H953-bH
T9 chain: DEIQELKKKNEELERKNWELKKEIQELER

4H3112-bH = target: T10, 4H3112-bH
T10 chain: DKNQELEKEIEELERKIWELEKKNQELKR

4H3855-bH = target: T11, 4H3855-bH
T11 chain: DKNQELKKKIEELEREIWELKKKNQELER

4H3185-bH = target: T12, 4H3185-bH
T12 chain: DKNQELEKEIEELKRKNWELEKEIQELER

4H797-bH = target: T13, 4H797-bH
T13 chain: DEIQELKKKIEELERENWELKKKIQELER

4H568-bH = target: T14, 4H568-bH
T14 chain: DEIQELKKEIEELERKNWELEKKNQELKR

4H2729-bH = target: T15, 4H2729-bH
T15 chain: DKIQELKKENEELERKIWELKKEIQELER

4H338-bH = target: T16, 4H338-bH
T16 chain: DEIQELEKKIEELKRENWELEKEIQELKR

4H3427-bH = target: T17, 4H3427-bH
T17 chain: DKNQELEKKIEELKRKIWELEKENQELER

4H754-bH = target: T18, 4H754-bH
T18 chain: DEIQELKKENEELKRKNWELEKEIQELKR

4H883-bH = target: T19, 4H883-bH
T19 chain: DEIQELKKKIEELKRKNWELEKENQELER

4H967-bH = target: T20, 4H967-bH
T20 chain: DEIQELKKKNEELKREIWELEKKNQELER

4H3354-bH = target: T21, 4H3354-bH
T21 chain: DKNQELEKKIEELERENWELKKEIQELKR

4H607-bH = target: T22, 4H607-bH
T22 chain: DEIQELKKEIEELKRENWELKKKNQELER

4H4001-bH = target: T23, 4H4001-bH
T23 chain: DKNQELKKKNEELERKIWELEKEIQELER

An interaction score (4H331-bH) of -1.61, an interaction score (4H687-bH) of -0.723 and an interaction score (4H454-bH) of 1.36 were found for DKIQELKKENEELERKIWELKKEIQELER [4H2729-bH] in this work. For the same binder, the interaction score (4H72-bH) was -1.03, the interaction score (4H918-bH) was 0.482 and the interaction score (4H3782-bH) was 0.82. The interaction score (4H908-bH) was -0.811, the interaction score (4H717-bH) was -0.127 and the interaction score (4H953-bH) was -0.638. For the same binder, the interaction score (4H3112-bH) was 0.258, the interaction score (4H3855-bH) was 0.286 and the interaction score (4H3185-bH) was -3.12. It also gave an interaction score (4H797-bH) of -0.381, an interaction score (4H568-bH) of -0.0225 and an interaction score (4H2729-bH) of 1.2. It also gave an interaction score (4H338-bH) of -0.279, an interaction score (4H3427-bH) of 0.368 and an interaction score (4H754-bH) of 0.0247. It also gave an interaction score (4H883-bH) of -0.885, an interaction score (4H967-bH) of 0.548 and an interaction score (4H3354-bH) of -0.446. It also gave an interaction score (4H607-bH) of -1.66 and an interaction score (4H4001-bH) of -0.467.
